Measurements published in publication PMC11026163, “Structural basis for excitatory neuropeptide signaling” (Nature Structural & Molecular Biology, 2024).
Where “and” joins values, the source holds several entries; their conditions need not be identical. Identical values can stand only once. Values belong to the molecule of their own block, whether it stands above or below them. Non-standard residues stand in square brackets, D forms with d. No end group written: not given here. Cit = NC(=O)NCCC[C@H](N)C(=O)O

Columns and labels:
FaNaC1 (WT) [1] = biological target: T1, FaNaC1 (WT) (Malacoceros fuliginosus, UniProt A0AAN0NP85); assay: Two-electrode voltage clamp, peptide-gated currents in Xenopus laevis oocytes expressing WT FaNaC1; type: cell-based
T1 sequence (A0AAN0NP85 1-600): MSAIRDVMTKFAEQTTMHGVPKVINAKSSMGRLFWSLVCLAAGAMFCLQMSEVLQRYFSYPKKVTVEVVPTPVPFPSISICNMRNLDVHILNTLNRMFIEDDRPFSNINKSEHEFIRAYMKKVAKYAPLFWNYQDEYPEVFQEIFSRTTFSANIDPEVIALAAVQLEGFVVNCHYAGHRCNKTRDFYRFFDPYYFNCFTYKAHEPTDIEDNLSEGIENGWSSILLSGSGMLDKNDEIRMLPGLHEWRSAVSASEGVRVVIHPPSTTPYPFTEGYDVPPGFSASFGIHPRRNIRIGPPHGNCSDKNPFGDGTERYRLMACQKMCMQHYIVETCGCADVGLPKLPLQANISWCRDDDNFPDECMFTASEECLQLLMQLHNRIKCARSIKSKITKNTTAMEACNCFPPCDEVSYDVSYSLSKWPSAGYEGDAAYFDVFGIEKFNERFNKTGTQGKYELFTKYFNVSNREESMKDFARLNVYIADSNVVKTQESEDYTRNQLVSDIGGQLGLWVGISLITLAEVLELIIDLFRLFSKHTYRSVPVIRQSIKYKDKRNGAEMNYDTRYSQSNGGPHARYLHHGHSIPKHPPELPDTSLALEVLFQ
Method: (§1) FaNaC1 in a modified pSP64 plasmid vector (Supplementary Notes) was used for mutagenesis and messenger RNA preparation and injection into stage V/VI Xenopus laevis oocytes (EcoCyte Bioscience). Mutants were generated by partly overlapping primers (Supplementary Table 1 and ref. [75]), and channel-coding inserts were Sanger sequenced. […] NaCl was replaced with KCl, NH4Cl or H3CNH3Cl (Merck) where appropriate.
(§2) Current amplitudes were measured in Clampfit v.11 (Molecular Devices). N values refer to experiments performed on different oocytes. Data were analyzed in Prism v.9 (GraphPad) and fit with Prism v.9 variable-slope four-parameter nonlinear regression, yielding half-maximal effective activating/inhibiting concentrations (EC50/IC50). […] Mean ± standard error of the mean (s.e.m.) EC50/IC50 from fits to individual cells reported in Main. Currents shown in figures are further filtered (20 Hz) and decimated (50×) in Clampfit 11 for smaller file size.

FaNaC1 H297S [2] = assay: TEVC, FMRFa- and ASSFVRIa-gated currents at H297S channels; type: cell-based, Malacoceros fuliginosus; settings: normalized to maximum FMRFa-gated current
From the text: (§3) Fig. 6 FaNaC1 gating mechanism. a, Overlay of ligand-free FaNaC1 (blue) and FaNaC1/FMRFa/diminazene (orange) structures. Adjacent subunit in darker shades. b, Magnified views of boxed regions, left to right: ligand binding site; palm domain; β-turn–TM2a/TM1 interactions. Selected side chains shown as sticks and labeled. c, Illustration of one subunit (left subunit in a) moving during gating: peripheral rolling, internal stasis and β-turn moving outward to allow channel expansion. α6 helix from adjacent subunit in gray. d, Top left and bottom, example recordings from oocytes expressing mutant H297S FaNaC1 channels (scale bars, x, 30 s; y, 1 µA). Top right, mean (± s.e.m., n = 5 oocytes) responses of H297S channels to FMRFa and ASSFVRIa normalized to maximum FMRFa-gated current (I/Imax-FMRFa), compared to WT channels. […]
(§4) Oocytes were clamped at −60 mV unless otherwise indicated, and currents were measured by two-electrode voltage clamp, as previously described, using a Warner OC-725C amplifier and HEKA LIH8 + 8 interface with Patchmaster 2x90.4 software (HEKA), sampling at 500 Hz or 1 kHz and filtering at 100 Hz. Current amplitudes were measured in Clampfit v.11 (Molecular Devices). […] Data were analyzed in Prism v.9 (GraphPad) and fit with Prism v.9 variable-slope four-parameter nonlinear regression, yielding half-maximal effective activating/inhibiting concentrations (EC50/IC50). […]

FaNaC1 (WT) [3] = biological target: T1, FaNaC1 (WT); assay: TEVC, diminazene block of peak and sustained FMRFa-gated current, WT FaNaC1 in oocytes; type: cell-based; settings: per oocyte
Method: as §1, §2
(a) 1 μM FMRF-gated currents with and without diminazene in an oocyte expressing wildtype (WT) FaNaC1. […] Scale bars: x, 5 s; y, 0.2 µA. (b) Mean ± SEM normalized peak (n = 4 oocytes) and sustained (n = 7 oocytes) current amplitude in the presence of increasing concentrations of diminazene. […] Scale bars: x, 5 s; y, 0.1 µA. Source data

FaNaC1 D0′N = assay: TEVC, diminazene block of sustained FMRFa-gated current at mutant channel; type: cell-based, Malacoceros fuliginosus; settings: block of Isus
Method: (§5) Fig. 5 FaNaC1/FMRFa/diminazene structure. a, Pore-lining residues in FaNaC1/FMRFa/diminazene structure (left) and pore radius for all four cryo-EM structures calculated in HOLE[53] (right). b, Top, diminazene structure (ionized at pH 7.4). Middle, peak (Ipeak) and sustained (Isus) FMRFa (3 µM)-gated currents through FaNaC1 in the absence and presence of diminazene (10 μM). Bottom, % block (individual data points, n = 3 oocytes at −60 mV, 4 at 10 mV, 3 at 80 mV; and means, bars) of Isus by diminazene at three different membrane potentials. c, Magnified view of FaNaC1/FMRFa/diminazene model, showing nonprotein cryo-EM density in the pore as mesh. d, Concentration-dependent block of Isus by diminazene at WT and mutant channels (mean ± s.e.m., n = 4 oocytes, except D0′N—see Source data). e, FMRFa-gated current amplitude (Vm = −60 mV; individual data points (n = 5) and means, bars) in extracellular solutions based on different cations. Source data
(§6) Given the drug’s effect on pore radius and its voltage-dependent block of currents, we hypothesized that this nonprotein density derives from partially unresolved or low occupancy diminazene molecules. […] We also generated mutant G2′S channels but saw no currents in oocytes injected with these RNAs (n = 8 over two batches of ooyctes). An additional helical turn higher, the S-1′A substitution caused constitutive current, as expected for mutating the TM2a-1′ degenerin position, but had no effect on diminazene potency (Fig. 5d and Extended Data Fig. 9c). […] Thus, we interpret our FaNaC1/FMRFa/diminazene structure as an FMRFa-gated, diminazene-blocked, open-channel conformation.
as §1
(§7) Oocytes were clamped at −60 mV unless otherwise indicated, and currents were measured by two-electrode voltage clamp, as previously described, using a Warner OC-725C amplifier and HEKA LIH8 + 8 interface with Patchmaster 2x90.4 software (HEKA), sampling at 500 Hz or 1 kHz and filtering at 100 Hz. Current amplitudes were measured in Clampfit v.11 (Molecular Devices). N values refer to experiments performed on different oocytes. Data were analyzed in Prism v.9 (GraphPad) and fit with Prism v.9 variable-slope four-parameter nonlinear regression, yielding half-maximal effective activating/inhibiting concentrations (EC50/IC50). In establishing EC50 values for activation by FMRFa, we waited 4 min between applications of increasing concentrations. […]

FaNaC1 G3′S = assay: as above; type: cell-based, Malacoceros fuliginosus; settings: block of Isus
Method: as §5, §6, §1, §7

FaNaC1 G6′S = assay: as above; type: cell-based, Malacoceros fuliginosus; settings: block of Isus
Method: as §5, §6, §1, §7

FaNaC1 S-1′A = assay: as above; type: cell-based, Malacoceros fuliginosus; settings: block of Isus
Method: as §5, §6, §1, §7

FaNaC1 H297S [4] = assay: TEVC, diminazene block of constitutive current of H297S channels; type: cell-based, Malacoceros fuliginosus; settings: 30 µM diminazene, mean ± s.e.m., n = 7
From the text: as §3, §4

ENaCs = ENaCs possess asparagine at the 0′ position; cited from earlier work
From the text: Given the drug’s effect on pore radius and its voltage-dependent block of currents, we hypothesized that this nonprotein density derives from partially unresolved or low occupancy diminazene molecules. […] We ...

[5] = biological target: FMRFamide-gated sodium channel 1 (FaNaC1) from Malacoceros fuliginosus (Malacoceros fuliginosus); assay: cryo-EM structure; FaNaC1 in POPC:POPG (3:1) lipid nanodiscs, 20 mM HEPES pH 7.6, 150 mM NaCl; alone, or with FMRFa 30 µM or ASSFVRIa 100 µM added directly before freezing; C3 symmetry imposed
[6] = biological target: FMRFamide-gated sodium channel 1 (FaNaC1) from Malacoceros fuliginosus (Malacoceros fuliginosus)
[7] = biological target: FMRFamide-gated sodium channel 1 (FaNaC1) from Malacoceros fuliginosus (Malacoceros fuliginosus); remark: listed apart in the source
[8] = biological target: FaNaC1 F129A (Malacoceros fuliginosus)
[9] = biological target: FaNaC1 F129L (Malacoceros fuliginosus)
[10] = biological target: FaNaC1 F129Q (Malacoceros fuliginosus)
[11] = biological target: FaNaC1 V122A (Malacoceros fuliginosus)
[12] = biological target: FaNaC1 F129C (Malacoceros fuliginosus)
[13] = biological target: FaNaC1 F129C modified by MTSET (Malacoceros fuliginosus)
[14] = biological target: FaNaC1 F97C (Malacoceros fuliginosus)
[15] = biological target: FaNaC1 F97C modified by MTSET (Malacoceros fuliginosus)
[16] = biological target: FaNaC1 M238C (Malacoceros fuliginosus)
[17] = biological target: FaNaC1 M238C modified by MTSET (Malacoceros fuliginosus)
[18] = [Diminazene] 1e-7 M, 1 μM FMRF-gated current

stoichiometry N [5]: 3
Molecule: FMRFamide-gated sodium channel 1 (FaNaC1) from Malacoceros fuliginosus (receptor)

EC50 of FMRFa-gated current, two-electrode voltage clamp, Xenopus oocytes expressing WT FaNaC1 [7]: 850 nM
EC50 of FMRFa-gated current, two-electrode voltage clamp, Xenopus oocytes [8]: 18000 nM
EC50 of FMRFa-gated current, two-electrode voltage clamp, Xenopus oocytes [9]: 9000 nM
fold decrease of FMRFa potency (EC50 of gated current) against WT, two-electrode voltage clamp, Xenopus oocytes [10]: 100 fold
EC50 of FMRFa-gated current, two-electrode voltage clamp, Xenopus oocytes (20-fold increase in potency) [11]: 40 nM
EC50 of FMRFa-gated current without MTSET, two-electrode voltage clamp, Xenopus oocytes [12]: 5000 nM
EC50 of FMRFa-gated current with MTSET, two-electrode voltage clamp, Xenopus oocytes [13]: > 10000 nM
EC50 of FMRFa-gated current without MTSET, two-electrode voltage clamp, Xenopus oocytes [14]: 250 nM
EC50 of FMRFa-gated current with MTSET, two-electrode voltage clamp, Xenopus oocytes [15]: 4000 nM
EC50 of FMRFa-gated current without MTSET, two-electrode voltage clamp, Xenopus oocytes [16]: 140 nM
EC50 of FMRFa-gated current with MTSET, two-electrode voltage clamp, Xenopus oocytes [17]: 580 nM
Molecule: H-FMRF-NH2 [FMRFamide (H-Phe-Met-Arg-Phe-NH2)]

EC50 of peptide-gated current, two-electrode voltage clamp, Xenopus oocytes expressing WT FaNaC1 [6]: 690 nM
B1: FM(citrulline)F-NH2 (peptide)
peptide: FM[Cit]F-NH2
modifications: N-terminus assumed
SMILES: CSCC[C@H](NC(=O)[C@@H](N)Cc1ccccc1)C(=O)N[C@@H](CCCNC(N)=O)C(=O)N[C@@H](Cc1ccccc1)C(N)=O

The next lines start with the molecule.

Molecule: ASSFVRI-NH2 [ASSFVRIa, product of the FVRIamide precursor in several annelids]
agonist type (FaNaC1 (WT) [1]): partial agonist
relative efficacy at H297S compared to WT (FaNaC1 H297S [2]): increased

Molecule: FMRA–NH2 [FMRAa, FMRFa analog lacking the C-terminal F4 side chain]
activation of current (FaNaC1 (WT) [1]; 100 μM peptide): barely activating detectable currents

Molecule: FVRI–NH2 [FVRIa, four C-terminal residues of ASSFVRIa]
activity compared to parent peptide ASSFVRIa (FaNaC1 (WT) [1]): very similar activity

Molecule: N=C(N)c1ccc(/N=N/Nc2ccc(C(=N)N)cc2)cc1 [diminazene]
Remaining peak current (FaNaC1 (WT) [3]; [18]): 0.9158 and 0.934 and 1.161 and 1.255
Remaining sustained current (FaNaC1 (WT) [3]; [18]): 0.6522 and 0.7647 and 0.9533 and 0.9846 and 0.7407 and 0.6744
Remaining peak current (FaNaC1 (WT) [3]; [Diminazene] 1e-6 M): 0.5053 and 0.783 and 0.8871 and 0.9636
effect of mutation on diminazene potency (FaNaC1 D0′N): decreased diminazene potency approximately tenfold
effect of mutation on diminazene potency (FaNaC1 G3′S): modestly reduced
effect of mutation on diminazene potency (FaNaC1 G6′S): drastically reduced
effect of mutation on diminazene potency (FaNaC1 S-1′A): no effect
block of constitutive current (FaNaC1 H297S [4]): 76 ± 5%
sensitivity to diminazene (ENaCs): insensitive

Molecule: AMRF-NH2 [AMRF-NH2]
EC50 of peptide-gated current, two-electrode voltage clamp, Xenopus oocytes expressing WT FaNaC1 [6]: 300 nM

Molecule: FMQF-NH2 [FMQF-NH2]
EC50 of peptide-gated current, two-electrode voltage clamp, Xenopus oocytes expressing WT FaNaC1 [6]: 4500 nM
